T1: mouse LILRB4 (mouse, UniProt Q64281 24-335)
T1 construct: whole, on cells; also called 293T-mouse LILRB4
T1 sequence (looked up): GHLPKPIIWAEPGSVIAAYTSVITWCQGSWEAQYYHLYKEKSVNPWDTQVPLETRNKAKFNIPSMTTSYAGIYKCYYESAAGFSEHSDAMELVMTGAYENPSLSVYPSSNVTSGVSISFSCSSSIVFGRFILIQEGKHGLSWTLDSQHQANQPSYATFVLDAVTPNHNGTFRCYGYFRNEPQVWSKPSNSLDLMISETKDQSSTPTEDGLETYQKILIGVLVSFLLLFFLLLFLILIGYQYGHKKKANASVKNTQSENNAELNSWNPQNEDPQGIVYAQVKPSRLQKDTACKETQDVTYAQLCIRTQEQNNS


What was measured:
[1] = biological target: T2, stock region of LILRB4 (UniProt Q8NHJ6 219-259, limits assumed); assay: flow cytometry
T2 construct: domain: stock region
T2 sequence (Q8NHJ6 219-259 limits assumed): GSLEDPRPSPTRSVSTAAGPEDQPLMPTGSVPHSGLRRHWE

[2] = biological target: T1, mouse LILRB4; assay: flow cytometry on 293T-mouse LILRB4
[3] = biological target: T3, LILRA2 (UniProt Q8N149 24-483, limits assumed); assay: flow cytometry on 293T cells expressing the protein
T3 construct: whole, on cells
T3 sequence (Q8N149 24-483 limits assumed): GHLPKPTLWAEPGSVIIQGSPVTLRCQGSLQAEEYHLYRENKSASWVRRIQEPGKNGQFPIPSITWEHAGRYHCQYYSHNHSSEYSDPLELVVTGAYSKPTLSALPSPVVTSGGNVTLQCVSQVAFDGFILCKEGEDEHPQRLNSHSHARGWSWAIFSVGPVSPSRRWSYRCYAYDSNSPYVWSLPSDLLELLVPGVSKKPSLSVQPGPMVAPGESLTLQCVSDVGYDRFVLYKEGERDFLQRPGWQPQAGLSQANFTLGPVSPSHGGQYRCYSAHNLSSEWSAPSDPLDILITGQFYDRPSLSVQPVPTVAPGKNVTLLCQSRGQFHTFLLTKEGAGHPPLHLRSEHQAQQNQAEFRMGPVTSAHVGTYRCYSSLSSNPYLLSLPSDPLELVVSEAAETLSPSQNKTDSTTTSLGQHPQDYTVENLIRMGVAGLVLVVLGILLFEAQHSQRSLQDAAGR

[4] = biological target: T4, LILRA3 (UniProt Q8N6C8 24-439, limits assumed); assay: as above
T4 construct: whole, on cells
T4 sequence (Q8N6C8 24-439 limits assumed): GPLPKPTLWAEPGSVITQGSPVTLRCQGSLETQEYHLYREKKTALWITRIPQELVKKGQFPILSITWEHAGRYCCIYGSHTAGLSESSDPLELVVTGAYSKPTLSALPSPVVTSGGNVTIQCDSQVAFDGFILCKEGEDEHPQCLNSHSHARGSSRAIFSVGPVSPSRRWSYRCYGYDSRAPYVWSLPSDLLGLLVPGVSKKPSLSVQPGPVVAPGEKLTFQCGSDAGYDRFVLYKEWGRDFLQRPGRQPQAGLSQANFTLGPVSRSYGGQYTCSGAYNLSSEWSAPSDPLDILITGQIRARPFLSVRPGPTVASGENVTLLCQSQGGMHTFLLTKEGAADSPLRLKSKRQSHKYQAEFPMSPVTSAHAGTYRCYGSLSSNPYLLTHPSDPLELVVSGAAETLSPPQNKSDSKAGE

[5] = biological target: T5, LILRA4 (UniProt P59901 24-499, limits assumed); assay: as above
T5 construct: whole, on cells
T5 sequence (P59901 24-499 limits assumed): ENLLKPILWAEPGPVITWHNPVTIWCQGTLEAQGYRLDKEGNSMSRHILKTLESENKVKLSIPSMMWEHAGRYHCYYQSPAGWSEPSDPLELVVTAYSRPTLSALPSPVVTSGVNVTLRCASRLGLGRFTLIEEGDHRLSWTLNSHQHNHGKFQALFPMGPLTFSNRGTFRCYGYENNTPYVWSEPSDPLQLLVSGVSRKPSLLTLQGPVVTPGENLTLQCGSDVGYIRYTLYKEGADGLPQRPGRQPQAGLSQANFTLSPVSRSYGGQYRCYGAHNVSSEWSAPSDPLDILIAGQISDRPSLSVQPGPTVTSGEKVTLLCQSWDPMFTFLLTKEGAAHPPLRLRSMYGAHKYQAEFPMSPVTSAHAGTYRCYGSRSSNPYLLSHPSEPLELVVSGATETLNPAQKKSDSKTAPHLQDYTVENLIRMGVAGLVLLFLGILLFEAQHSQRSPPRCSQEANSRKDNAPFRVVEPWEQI

[6] = biological target: T6, LILRA5 (UniProt A6NI73 42-299, limits assumed); assay: as above
T6 construct: whole, on cells
T6 sequence (A6NI73 42-299 limits assumed): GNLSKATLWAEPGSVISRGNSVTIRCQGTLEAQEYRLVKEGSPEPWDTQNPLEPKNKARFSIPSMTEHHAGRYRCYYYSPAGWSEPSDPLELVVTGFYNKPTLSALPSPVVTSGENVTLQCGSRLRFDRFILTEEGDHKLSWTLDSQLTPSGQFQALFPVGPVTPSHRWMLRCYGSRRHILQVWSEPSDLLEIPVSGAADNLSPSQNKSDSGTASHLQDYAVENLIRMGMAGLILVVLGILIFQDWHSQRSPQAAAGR

[7] = biological target: T7, LILRA6 (UniProt Q6PI73 24-481, limits assumed); assay: as above
T7 construct: whole, on cells
T7 sequence (Q6PI73 24-481 limits assumed): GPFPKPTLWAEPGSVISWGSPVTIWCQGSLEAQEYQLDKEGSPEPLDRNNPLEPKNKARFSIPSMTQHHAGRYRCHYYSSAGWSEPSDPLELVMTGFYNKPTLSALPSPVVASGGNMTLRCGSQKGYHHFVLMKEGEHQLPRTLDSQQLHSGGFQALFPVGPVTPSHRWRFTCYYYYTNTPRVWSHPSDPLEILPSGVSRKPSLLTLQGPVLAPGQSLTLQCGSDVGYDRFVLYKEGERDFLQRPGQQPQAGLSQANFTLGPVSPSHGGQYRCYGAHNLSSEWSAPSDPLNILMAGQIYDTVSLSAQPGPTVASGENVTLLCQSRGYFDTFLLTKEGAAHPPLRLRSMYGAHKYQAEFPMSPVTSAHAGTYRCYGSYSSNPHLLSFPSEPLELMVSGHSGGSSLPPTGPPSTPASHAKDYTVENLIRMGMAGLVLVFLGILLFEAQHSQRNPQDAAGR

[8] = biological target: T8, LILRB1 (UniProt Q8NHL6 24-650, limits assumed); assay: as above
T8 construct: whole, on cells
T8 sequence (Q8NHL6 24-650 limits assumed): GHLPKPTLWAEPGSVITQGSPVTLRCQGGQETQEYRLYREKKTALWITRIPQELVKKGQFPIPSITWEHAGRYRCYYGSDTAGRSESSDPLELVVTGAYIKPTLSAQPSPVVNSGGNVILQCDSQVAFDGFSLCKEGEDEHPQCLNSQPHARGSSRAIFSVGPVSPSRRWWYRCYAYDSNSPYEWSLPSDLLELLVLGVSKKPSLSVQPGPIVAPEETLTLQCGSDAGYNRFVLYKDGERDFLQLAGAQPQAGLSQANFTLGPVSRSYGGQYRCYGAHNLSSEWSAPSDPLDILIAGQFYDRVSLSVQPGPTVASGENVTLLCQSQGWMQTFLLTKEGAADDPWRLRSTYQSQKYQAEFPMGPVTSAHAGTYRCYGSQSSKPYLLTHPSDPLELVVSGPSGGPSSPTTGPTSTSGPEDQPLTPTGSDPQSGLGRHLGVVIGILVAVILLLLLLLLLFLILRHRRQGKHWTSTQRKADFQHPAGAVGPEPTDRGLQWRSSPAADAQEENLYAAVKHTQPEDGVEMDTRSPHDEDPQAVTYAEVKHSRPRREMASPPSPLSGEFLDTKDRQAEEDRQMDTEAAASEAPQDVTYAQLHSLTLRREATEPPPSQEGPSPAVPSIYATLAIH

[9] = biological target: T9, LILRB2 (UniProt Q8N423 22-597, limits assumed); assay: as above
T9 construct: whole, on cells
T9 sequence (Q8N423 22-597 limits assumed): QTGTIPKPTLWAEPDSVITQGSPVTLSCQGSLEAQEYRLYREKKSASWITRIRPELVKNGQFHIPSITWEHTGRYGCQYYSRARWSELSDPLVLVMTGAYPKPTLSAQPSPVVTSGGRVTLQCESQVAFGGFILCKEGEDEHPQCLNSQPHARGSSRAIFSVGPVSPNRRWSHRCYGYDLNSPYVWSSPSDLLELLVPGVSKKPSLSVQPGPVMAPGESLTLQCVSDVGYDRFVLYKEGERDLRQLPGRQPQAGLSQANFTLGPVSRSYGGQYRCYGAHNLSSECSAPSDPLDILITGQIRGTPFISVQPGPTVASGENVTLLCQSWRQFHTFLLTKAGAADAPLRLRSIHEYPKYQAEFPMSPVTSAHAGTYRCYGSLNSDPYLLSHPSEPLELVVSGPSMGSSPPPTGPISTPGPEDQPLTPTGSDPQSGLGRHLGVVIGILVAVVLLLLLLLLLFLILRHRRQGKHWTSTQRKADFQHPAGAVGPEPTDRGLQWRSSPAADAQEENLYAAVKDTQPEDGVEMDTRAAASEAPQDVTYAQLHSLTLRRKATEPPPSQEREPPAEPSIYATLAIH

[10] = biological target: T10, LILRB3 (UniProt O75022 24-631, limits assumed); assay: as above
T10 construct: whole, on cells
T10 sequence (O75022 24-631 limits assumed): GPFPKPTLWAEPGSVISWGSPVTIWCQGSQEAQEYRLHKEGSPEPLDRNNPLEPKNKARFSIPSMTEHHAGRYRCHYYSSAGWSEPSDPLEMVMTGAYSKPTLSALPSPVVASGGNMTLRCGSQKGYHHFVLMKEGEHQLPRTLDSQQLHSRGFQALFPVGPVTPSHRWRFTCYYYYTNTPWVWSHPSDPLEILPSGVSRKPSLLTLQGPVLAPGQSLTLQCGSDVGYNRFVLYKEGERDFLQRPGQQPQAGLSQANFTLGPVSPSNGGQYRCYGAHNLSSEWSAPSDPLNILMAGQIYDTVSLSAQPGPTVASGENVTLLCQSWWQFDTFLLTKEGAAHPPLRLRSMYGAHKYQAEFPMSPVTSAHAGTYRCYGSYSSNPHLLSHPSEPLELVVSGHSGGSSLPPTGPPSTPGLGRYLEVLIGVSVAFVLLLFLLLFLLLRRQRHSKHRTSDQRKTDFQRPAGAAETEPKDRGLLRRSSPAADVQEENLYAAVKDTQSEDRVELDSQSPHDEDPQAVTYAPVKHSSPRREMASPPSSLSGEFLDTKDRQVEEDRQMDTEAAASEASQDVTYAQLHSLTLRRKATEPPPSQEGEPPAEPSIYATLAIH

[11] = biological target: T11, LILRB5 (UniProt O75023 24-590, limits assumed); assay: as above
T11 construct: whole, on cells
T11 sequence (O75023 24-590 limits assumed): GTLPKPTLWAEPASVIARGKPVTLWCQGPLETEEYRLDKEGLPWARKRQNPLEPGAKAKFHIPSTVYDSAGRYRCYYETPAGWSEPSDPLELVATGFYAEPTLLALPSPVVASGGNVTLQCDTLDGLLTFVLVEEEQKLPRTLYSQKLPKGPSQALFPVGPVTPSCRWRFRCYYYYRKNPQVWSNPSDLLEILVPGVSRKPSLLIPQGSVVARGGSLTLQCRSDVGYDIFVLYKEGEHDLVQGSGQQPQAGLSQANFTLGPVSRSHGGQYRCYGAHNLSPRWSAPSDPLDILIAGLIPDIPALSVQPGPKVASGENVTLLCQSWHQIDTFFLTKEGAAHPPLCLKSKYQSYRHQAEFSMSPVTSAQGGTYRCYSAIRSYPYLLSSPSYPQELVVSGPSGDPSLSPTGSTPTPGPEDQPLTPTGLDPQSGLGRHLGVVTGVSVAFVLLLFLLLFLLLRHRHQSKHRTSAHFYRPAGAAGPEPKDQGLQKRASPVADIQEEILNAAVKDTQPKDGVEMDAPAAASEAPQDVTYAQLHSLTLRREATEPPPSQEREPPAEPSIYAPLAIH

[12] = biological target: T12, LILRA1 (UniProt O75019 17-489, limits assumed); assay: as above
T12 construct: whole, on cells
T12 sequence (O75019 17-489 limits assumed): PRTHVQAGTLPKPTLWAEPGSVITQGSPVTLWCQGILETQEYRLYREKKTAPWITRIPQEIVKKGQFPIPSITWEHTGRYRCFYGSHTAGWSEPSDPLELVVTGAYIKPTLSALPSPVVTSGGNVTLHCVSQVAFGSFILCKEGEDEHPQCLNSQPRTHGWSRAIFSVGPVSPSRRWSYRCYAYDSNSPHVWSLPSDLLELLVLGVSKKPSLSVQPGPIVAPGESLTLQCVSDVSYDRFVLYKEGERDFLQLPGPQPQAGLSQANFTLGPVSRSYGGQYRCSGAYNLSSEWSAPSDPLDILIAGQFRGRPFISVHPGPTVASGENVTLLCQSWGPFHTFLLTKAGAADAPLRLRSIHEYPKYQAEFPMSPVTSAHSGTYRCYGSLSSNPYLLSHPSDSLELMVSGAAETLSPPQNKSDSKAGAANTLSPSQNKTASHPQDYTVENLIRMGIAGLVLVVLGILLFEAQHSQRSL

[13] = biological target: T13, LILRB4 protein (UniProt Q8NHJ6 22-259); assay: SPR (Biacore 8K); VHH-Fc captured by anti-human IgG(Fc) on CM5 chip, LILRB4 protein as analyte 0.977-62.5 nM; 1:1 binding fit
T13 construct: also called Pro-LB

Row | binding result [1] | binding result [2] | binding result [3] | binding result [4] | binding result [5] | binding result [6] | binding result [7] | binding result [8] | binding result [9] | binding result [10] | binding result [11] | binding result [12] | Kd [13] [nM] | koff [13] [s⁻¹] | kon [13] [M⁻¹ s⁻¹] | Binder
1 | no binding | no binding | no binding | no binding | no binding | no binding | no binding | no binding | no binding | no binding | no binding | no binding | 1.32 | 0.000551 | 418000 | NLB4 VHH antibody fused with human IgG1 (Fc) (Fc fusion, also called NLB(G4S)IGG1FC; NLB4 nanobody; not shown: human IgG1 Fc) DVQLQESGGGLVQSGGSLRLSCLASGTSGNVKAVGWYGWYRQAPGKQREVVATITRGGIPNYADSVQGRFTISRDNAQDTVFLQMNSLKPADTAVYYCYARILTDDWHDLWGQGTQVTVSSGGGGS
2 | no binding | no binding | no binding | no binding | no binding | no binding | no binding | no binding | no binding | no binding | no binding | no binding | 0.493 | 0.000301 | 612000 | NLB14 VHH antibody fused with human IgG1 (Fc) (Fc fusion, also called NLB(G4S)IGG1FC; NLB14 nanobody; not shown: human IgG1 Fc) DVQLQESGGGLVQPGGSLRLSCAASGFTLDYYAIGWFRQAPGKEREGVSCVSSSDGSTYYADSVKGRFTISRDNAKNTVYLQMNSLKPEDTAVYYCAADQYSSTWTIRLTRCHFGSWGQGTQVTVSSGGGGS

Source: patent EP4606823A1 (Bristar Immunotech Limited, dated 2025)
